Experimental data: patent US20060217308A1, “Compositions for the treatment of tumor pathologies, comprising internalin B (ln1B) of Listeria monocytogene protein or a fragment thereof” (priority 2005, published 2006)

Columns and labels:
Type in all cases: cell-based, human
Met [1] = assay: Maintenance of InIB-induced degradation of Met in the presence of HGF; settings: HeLa cells, HGF 1 nM + InIB 5 nM, 1% serum medium
Experimental: FIG. 9 depicts immunodetection of Met from total cell lysates. Serum-containing media (1%) with HGF (1 nM), HGF (1 nM)+InIB (5 nM), or without either HGF or InIB (control) was added to HeLa cells. Cells were recovered at the indicated times after addition of HGF, and HGF+InIB, resuspended in SDS-PAGE sample buffer, and immediately boiled for 5 minutes.
Shortly after InIB treatment, Met is very rapidly degraded. Thus, whether InIB-induced degradation of Met is maintained for longer periods of time was tested. In fact, InIB-induced degradation of Met is maintained in time.

Met [2] = assay: Nature of In1B-dependent ubiquitination of Met (FK1 versus P4D1 antibodies); settings: HeLa cells, In1B 5 nM, FK1 did not recognize
Experimental: (A) In1B was added (+) to HeLa cells. Lysates were immunoprecipitated using C12 rabbit polyclonal anti-Met antibody and blotted against Met (DL21 mAb). The same membrane was stripped and blotted against ubiquitin using FK1, a mAb that recognizes poly-ubiquitinated proteins, or P4D1, a mAb that recognizes both poly- and mono-ubiquitinated proteins. (B) Total cell extracts from Hela cells treated with […] epoximycin (lane 2) or […] clasto-lactacystin-β-lactone (lane 3) for 60 minutes, or non-treated cells (lane 1) were blotted against poly-ubiquitin (FK1) or actin. (C) ubiquitin ladder was blotted with FK1 or P4D1. The number of ubiquitin modules is indicated on the right. The molecular weight of protein markers is shown in the left of the panels, in kDa. In D and E, Hela Cells were transfected with siRNA to knock down Cbl expression (RNAi), or with RNA control (Control). (D) Cellular Cbl and actin were detected by immunoblotting. […]
The rapid degradation of Met after In B contact is different from the HGF-dependent degradation, which has been reported to take two hours (19-21), indicating differences in the biochemistry of the process. […] Samples from HeLa cells treated with In1B (5 nM) were immunoprecipitated using an anti-Met antibody, and then Met-immunoprecipitates were analyzed with an anti Met mAb (FIG. 3A1), FK1 (FIG. 3A2) or P4D1 (FIG. 3A3). […]

Met [3] = assay: In1B-induced degradation of Met, anti-Met immunoblot of total HeLa cell extracts
Experimental: FIG. 2 depicts the degradation and de-novo synthesis of Met. (A) HeLa cells were treated at the indicated times with 5 nM In1B and cellular extracts were blotted against Met. (B) Cells were treated as in A, but blotted at the same time with anti-Met antibody and Streptavidin. Stars indicate nonspecific bands recognized by streptavidin and the square indicates Met. (C) The experiment was performed as in A, but cells were pre-treated with […] of cycloheximide for 90 minutes before addition of In1B. (D) This experiment was performed as in A, but In1B was removed three minutes after it was added. Actin is shown as the loading control in A, C and D. The molecular mass of the markers is indicated in kDa.
Cells, bacteria and growth conditions. The human cell line used was HeLa (ATCC number CCL-2) grown as recommended by ATCC. Typically, cells were serum starved for three hours before the addition of In1B. The bacterial strains used were Listeria monocytogenes BUG600 and BUG1461. They were grown in BHI medium, which in the case […] contained 5 μg/ml of erythromycin.
Assays. Immunoprecipitation, Re-immunoprecipitation, and immunoblots were performed as described before (31). In1B purification was performed as described (54).
To study In1B-induced degradation of Met in more detail, HeLa cells were treated during increasing periods with In1B (5 nM) and anti-Met immunoblots were performed directly on total cell extracts (FIG. 2A).
When In1B is present, de-novo synthesized Met was in turn ubiquitinated and then degraded (FIG. 2A).

Met [4] = assay: Cell surface biotinylation and internalization assay of Met; settings: HeLa cells, In1B two minutes
Experimental: (A) Hela cells were treated (+) with […] epoximycin, […] clasto-lactacystin-β-lactone (lactone), 20 mM ammonium chloride, or 5 μM bafilomycin A1 (Baf-A1) for 90 minutes before addition of In1B. Cell extracts were loaded in a SDS-PAGE gel followed by immunoblot with anti-Met antibody. […] (B) Surface exposed proteins of Hela cells were biotinylated (Biot +) before addition of In1B. In1B was added for two minutes to allow internalization of Met, then cells were washed and biotin was removed (see methods and text) from the surface. Samples were precipitated with neutravidin agarose and blotted against Met.
Cell surface biotinylation and internalization assay were performed as described before (35). Briefly, the cells were washed in ice-cold PBS, and incubated with 25 mg/ml EZ-link Sulfo-NHS-SS-biotin (Pierce) 15 minutes in PBS pH 8.0, and followed by one wash with serum free media containing 0.1% BSA, followed by one wash in PBS containing Ca and Mg (PBS+CaMg; Gibco). The cells were then warmed to 37° C., incubated with In1B for two minutes, and then cooled down to 4° C. The cells were washed again with PBS+CaMg, and cell-surface debiotinylation was performed by adding 100 mM MESNA in 50 mM Tris-HCl pH 8.6, 100 mM NaCl, 1 mM EDTA and 0.2% BSA (3 times, 10 minutes incubation). […]

Chain of Met (P08581 25-1390): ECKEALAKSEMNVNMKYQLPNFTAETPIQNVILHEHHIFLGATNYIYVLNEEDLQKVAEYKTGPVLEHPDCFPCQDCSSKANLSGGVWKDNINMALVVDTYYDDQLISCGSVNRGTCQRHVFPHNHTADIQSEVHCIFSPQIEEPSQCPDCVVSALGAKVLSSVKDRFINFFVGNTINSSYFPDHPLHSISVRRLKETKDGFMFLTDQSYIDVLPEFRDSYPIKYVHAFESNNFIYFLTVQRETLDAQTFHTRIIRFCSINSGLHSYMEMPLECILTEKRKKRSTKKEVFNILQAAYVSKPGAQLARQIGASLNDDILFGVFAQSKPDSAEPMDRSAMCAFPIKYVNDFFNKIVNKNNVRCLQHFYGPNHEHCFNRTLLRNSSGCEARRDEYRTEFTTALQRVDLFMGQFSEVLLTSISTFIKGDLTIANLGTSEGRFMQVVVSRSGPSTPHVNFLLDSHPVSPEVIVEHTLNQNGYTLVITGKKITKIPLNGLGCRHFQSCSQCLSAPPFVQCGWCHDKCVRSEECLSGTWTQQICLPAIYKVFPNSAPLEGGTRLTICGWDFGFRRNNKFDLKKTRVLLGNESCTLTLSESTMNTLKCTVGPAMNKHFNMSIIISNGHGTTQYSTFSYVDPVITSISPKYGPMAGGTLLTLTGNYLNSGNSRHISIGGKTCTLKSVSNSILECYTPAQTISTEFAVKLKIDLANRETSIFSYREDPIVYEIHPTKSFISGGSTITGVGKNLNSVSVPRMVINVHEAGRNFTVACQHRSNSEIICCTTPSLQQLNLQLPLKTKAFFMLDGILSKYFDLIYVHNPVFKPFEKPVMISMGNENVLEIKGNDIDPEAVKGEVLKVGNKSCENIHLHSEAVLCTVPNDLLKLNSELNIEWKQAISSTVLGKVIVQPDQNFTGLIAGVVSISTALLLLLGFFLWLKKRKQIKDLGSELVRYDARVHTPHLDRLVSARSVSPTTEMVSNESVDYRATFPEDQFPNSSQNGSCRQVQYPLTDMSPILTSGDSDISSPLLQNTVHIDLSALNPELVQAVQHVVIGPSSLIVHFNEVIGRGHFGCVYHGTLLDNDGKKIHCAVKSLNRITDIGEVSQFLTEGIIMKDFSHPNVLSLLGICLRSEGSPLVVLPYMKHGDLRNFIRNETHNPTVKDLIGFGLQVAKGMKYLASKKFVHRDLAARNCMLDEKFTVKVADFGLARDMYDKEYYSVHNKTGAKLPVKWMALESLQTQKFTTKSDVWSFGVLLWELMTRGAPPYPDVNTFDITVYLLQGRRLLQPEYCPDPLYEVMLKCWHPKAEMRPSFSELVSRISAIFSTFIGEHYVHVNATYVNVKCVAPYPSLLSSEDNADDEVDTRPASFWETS

B1: In1B: Listeria monocytogenes surface protein of the internalin family that interacts with Met; purified soluble protein (protein, UniProt P0DQD2 31-630, looked up)
Internalin B: AKVQAETITVPTPIKQIFSDDAFAETIKDNLKKKSVTDAVTQNELNSIDQIIANNSDIKSVQGIQYLPNVTKLFLNGNKLTDIKPLANLKNLGWLFLDENKVKDLSSLKDLKKLKSLSLEHNGISDINGLVHLPQLESLYLGNNKITDITVLSRLTKLDTLSLEDNQISDIVPLAGLTKLQNLYLSKNHISDLRALAGLKNLDVLELFSQECLNKPINHQSNLVVPNTVKNTDGSLVTPEIISDDGDYEKPNVKWHLPEFTNEVSFIFYQPVTIGKAKARFHGRVTQPLKEVYTVSYDVDGTVIKTKVEAGTRITAPKPPTKQGYVFKGWYTEKNGGHEWNFNTDYMSGNDFTLYAVFKAETTEKAVNLTRYVKYIRGNAGIYKLPREDNSLKQGTLASHRCKALTVDREARNGGKLWYRLKNIGWTKAENLSLDRYDKMEYDKGVTAYARVRNASGNSVWTKPYNTAGAKHVNKLSVYQGKNMRILREAKTPITTWYQFSIGGKVIGWVDTRALNTFYKQSMEKPTRLTRYVSANKAGESYYKVPVADNPVKRGTLAKYKNQKLIVDCQATIEGQLWYRIRTSSTFIGWTKAANLRAQK
Met [1]
  time for which InIB-induced degradation of Met is maintained: at least 24 hours
Met [2]
  nature of In1B-dependent ubiquitination of Met: mono-ubiquitination rather than poly-ubiquitination
Met [3]
  time after addition at which In1B-induced degradation of Met is observable: one
Met [3]; HeLa cells, In1B 5 nM, 2 minutes
  total amount of Met two minutes after addition of In1B: strongly reduced
Met [3]; HeLa cells, In1B 5 nM, blot with anti-Met antibody and Streptavidin, actin control
  specificity of the In1B effect for Met versus other cellular proteins: only affected the amount of Met
Met [3]; HeLa cells, In1B removed three minutes after addition, 15 minutes after initial exposure
  degradation of re-synthesized Met when In1B was removed from the medium: no degradation of Met was observed
Met [4]
  endocytosis of Met (protection of biotinylated Met from MESNA de-biotinylation): protected Met from de-biotinylation
